Patent US20200024330A1

What was measured:
Experiment in all cases: cell-based or functional assay
[1] = molecular target: HIV-1 Env of isolate 93WR029 (HIV-1)
[2] = molecular target: HIV-1 Env of isolate JRCSF (HIV-1) (UniProt P20871)
[3] = molecular target: HIV-1 Env of isolate MGRM-C-025 (HIV-1)
[4] = molecular target: HIV-1 Env of isolate MGRM-AG-008 (CRF_AG), on pseudovirus (HIV-1)
[5] = molecular target: HIV-1 Env of isolate 93MW959 (HIV-1)
[6] = molecular target: HIV-1 Env of isolate 93IN905 (HIV-1)
[7] = molecular target: HIV-1 Env of isolate MGRM-AE-001 (CRF01_AE), on pseudovirus (HIV-1)
[8] = molecular target: HIV-1 Env of isolate APV-6 (pseudovirus) (HIV-1 isolate APV-6, subtype B)
[9] = molecular target: HIV-1 Env of isolate MGRM-C-014 (HIV-1)
[10] = molecular target: HIV-1 Env of isolate MGRM-F1-021 (subtype F), on pseudovirus (HIV-1)
[11] = molecular target: HIV-1 Env of isolate MGRM-AE-003 (CRF01_AE), on pseudovirus (HIV-1)
[12] = molecular target: HIV-1 Env of isolate MGRM-D-001 (HIV-1)
[13] = molecular target: HIV-1 Env of isolate MGRM-F1-006 (subtype F), on pseudovirus (HIV-1)
[14] = molecular target: HIV-1 Env of isolate 93UG077 (HIV-1)
[15] = molecular target: HIV-1 Env of isolate MGRM-G-015 (subtype G) (HIV-1)
[16] = molecular target: HIV-1 Env of isolate MGRM-G-019 (subtype G) (HIV-1)
[17] = molecular target: HIV-1 Env of isolate MGRM-G-025 (subtype G) (HIV-1)
[18] = molecular target: HIV-1 Env of isolate MGRM-G-011 (subtype G) (HIV-1)
[19] = molecular target: HIV-1 92BR020 Env (pseudovirus) (HIV-1)
[20] = molecular target: HIV-1 Env of isolate MG RM-D-022 (subtype D) (HIV-1)
[21] = molecular target: HIV-1 JR-CSF Env R480A (HIV-1 (isolate JR-CSF)) (UniProt P20871)
[22] = molecular target: HIV-1 JR-CSF Env D474A (HIV-1 (isolate JR-CSF)) (UniProt P20871)
[23] = molecular target: HIV-1 JR-CSF Env P470A (HIV-1 (isolate JR-CSF)) (UniProt P20871)
[24] = molecular target: HIV-1 QH0692.42 Env (pseudovirus) (HIV-1)
[25] = molecular target: HIV-1 JR-CSF Env L179A (HIV-1 (isolate JR-CSF)) (UniProt P20871)
[26] = molecular target: HIV-1 MGRM-Chronic-B-018 Env (pseudovirus) (HIV-1)
[27] = molecular target: HIV-1 MGRM-Chronic-B-004 Env (pseudovirus) (HIV-1)
[28] = molecular target: HIV-1 Env of isolate 92UG114 (subtype D) (HIV-1)
[29] = molecular target: HIV-1 Env of isolate MGRM-C-019 (pseudovirus) (HIV-1 isolate MGRM-C-019, subtype C)
[30] = molecular target: HIV-1 MGRM-Chronic-B-017 Env (pseudovirus) (HIV-1)
[31] = molecular target: HIV-1 THR0.18 Env (pseudovirus) (HIV-1)
[32] = molecular target: aMLV envelope on pseudovirus (negative control virus)

PGT-142 (4995_E20) (antibody), sequence (VH): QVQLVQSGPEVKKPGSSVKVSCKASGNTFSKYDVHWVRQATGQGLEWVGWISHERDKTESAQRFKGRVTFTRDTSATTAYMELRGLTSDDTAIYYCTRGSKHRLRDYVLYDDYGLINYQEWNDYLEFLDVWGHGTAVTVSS
PGT-142 (4995_E20) (antibody), sequence (VL): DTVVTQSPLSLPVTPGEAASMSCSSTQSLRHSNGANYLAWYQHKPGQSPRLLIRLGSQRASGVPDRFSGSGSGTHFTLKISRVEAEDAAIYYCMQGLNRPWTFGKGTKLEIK
5329_C19 (PGT-136) (antibody), sequence (VH): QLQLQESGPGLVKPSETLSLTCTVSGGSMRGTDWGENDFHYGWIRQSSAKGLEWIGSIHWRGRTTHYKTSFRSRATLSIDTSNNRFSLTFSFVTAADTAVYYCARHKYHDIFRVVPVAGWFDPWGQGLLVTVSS
5329_C19 (PGT-136) (antibody), sequence (VL): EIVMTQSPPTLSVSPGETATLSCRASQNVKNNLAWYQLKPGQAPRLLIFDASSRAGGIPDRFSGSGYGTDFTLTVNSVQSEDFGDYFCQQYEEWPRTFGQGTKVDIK
PGT-143 (4980_N08) (antibody), sequence (VH): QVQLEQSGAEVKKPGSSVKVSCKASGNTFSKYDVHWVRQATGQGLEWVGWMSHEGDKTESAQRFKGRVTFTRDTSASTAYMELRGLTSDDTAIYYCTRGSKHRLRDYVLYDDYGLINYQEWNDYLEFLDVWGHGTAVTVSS
PGT-143 (4980_N08) (antibody), sequence (VL): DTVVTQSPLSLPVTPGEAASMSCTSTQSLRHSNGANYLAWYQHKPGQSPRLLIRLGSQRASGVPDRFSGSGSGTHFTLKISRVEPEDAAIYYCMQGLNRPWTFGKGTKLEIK

## 5329_C19 (PGT-136) (antibody)
[1]
  neutralization IC50: > 50 µg/mL
[2]
  IC50: > 50 µg/mL
[3]
  IC50: > 50 µg/mL
[4]
  IC50, single-round pseudovirus neutralization: > 50 µg/mL
[5]
  IC50: > 50 µg/mL
[6]
  IC50: 0.011 µg/mL
[7]
  IC50, single-round pseudovirus neutralization: > 50 µg/mL
[8]
  IC50 (µg/mL) neutralization: > 50 µg/mL
[9]
  IC50: > 50 µg/mL
[10]
  IC50, pseudovirus neutralization: > 50 µg/mL
[11]
  IC50, single-round pseudovirus neutralization: > 50 µg/mL
[12]
  IC50: > 50 µg/mL
[13]
  IC50, pseudovirus neutralization: > 50 µg/mL
[14]
  neutralization IC50: > 50 µg/mL

## VRC01 (antibody)
[2]
  neutralization IC50: 0.164 µg/mL
[5]
  neutralization IC50: 0.053 µg/mL
[15]
  neutralization IC50: 0.548 µg/mL
[16]
  neutralization IC50: 0.06 µg/mL
[6]
  neutralization IC50: 0.138 µg/mL
[17]
  neutralization IC50: 0.292 µg/mL
[18]
  neutralization IC50: 0.065 µg/mL

## PGT-122 (antibody)
[1]
  IC50 (µg/mL), pseudovirus neutralization: > 50 µg/mL
[14]
  IC50 (µg/mL), pseudovirus neutralization: 0.084 µg/mL

## 5145_B14 (PGT-127) (antibody)
[19]
  IC50, pseudovirus neutralization: 0.059 µg/mL
[20]
  IC50 (µg/mL), pseudovirus neutralization: > 50 µg/mL
[21]
  Fold IC50 increase relative to wild-type: 0.2 fold
[22]
  Fold IC50 increase relative to wild-type: 1.5 fold
[23]
  Fold IC50 increase relative to wild-type: 1 fold
[24]
  IC50, pseudovirus neutralization: 0.129 µg/mL
[25]
  Fold IC50 increase relative to wild-type: 2.5 fold
[26]
  IC50, pseudovirus neutralization: 1.9 µg/mL
[27]
  IC50, pseudovirus neutralization: 0.018 µg/mL
[28]
  IC50 (µg/mL), pseudovirus neutralization: 7.09 µg/mL
[29]
  IC50 (µg/mL) neutralization: 0.017 µg/mL
[30]
  IC50, pseudovirus neutralization: > 50 µg/mL
[31]
  IC50, pseudovirus neutralization: > 50 µg/mL

## 4838_L06 (PGT-121) (antibody)
[19]
  neutralization IC80: 0.0532 µg/mL
  neutralization IC90: 0.101 µg/mL
[20]
  IC50 (µg/mL), pseudovirus neutralization: > 50 µg/mL
[24]
  IC50, pseudovirus neutralization: 0.823 µg/mL
[26]
  IC50, pseudovirus neutralization: > 50 µg/mL
[27]
  IC50, pseudovirus neutralization: 0.009 µg/mL
[28]
  IC50 (µg/mL), pseudovirus neutralization: 0.004 µg/mL
[32]
  IC50 (ug/ml), neutralizing activity: > 10 µg/mL
[29]
  IC50 (µg/mL) neutralization: > 50 µg/mL
[30]
  IC50, pseudovirus neutralization: > 50 µg/mL
[31]
  IC50, pseudovirus neutralization: > 50 µg/mL

## PGT-143 (4980_N08) (antibody)
[15]
  neutralization IC50: > 50 µg/mL
[16]
  neutralization IC50: 4.77 µg/mL
[17]
  neutralization IC50: > 50 µg/mL
[18]
  neutralization IC50: 0.074 µg/mL

## PGT-142 (4995_E20) (antibody)
[15]
  neutralization IC50: > 50 µg/mL
[16]
  neutralization IC50: 5.95 µg/mL
[17]
  neutralization IC50: > 50 µg/mL
[18]
  neutralization IC50: 0.046 µg/mL

## PGT-121 (antibody)
[1]
  IC50 (µg/mL), pseudovirus neutralization: > 50 µg/mL
[2]
  Primary Neutralization Index (B cell culture well 4838 L06): 3.2
  Primary Neutralization Index (B cell culture well 4873 E03): 2.2
[14]
  IC50 (µg/mL), pseudovirus neutralization: 0.019 µg/mL
